Measured values: PMC4142144 (Molecular cell, 2014)
Blank lines part the entries; values can stand above or below the binder they belong to.

What was measured:
mono-ubiquitin = mono-ubiquitin (UniProt P0CG48 1-76); assay: crystal structure
SEC-MALS = molecular target: the molecule itself; assay: SEC-MALS

binding result (mono-ubiquitin): binds
B1: 2CARD^RIG-I(E52A) (domain or fragment, human, UniProt O95786 1-188, looked up)
chain: MTTEQRRSLQAFQDYIRKTLDPTYILSYMAPWFREEEVQYIQAEKNNKGPMAAATLFLKFLLELQEEGWFRGFLDALDHAGYSGLYEAIESWDFKKIEKLEEYRLLLKRLQPEFKTRIIPTDIISDLSECLINQECEEILQICSTKGMMAGAEKLVECLLRSDKENWPKTLKLALEKERNKFSELWIV

B2: 2CARD^RIG-I(E52A)-CARD^MAVS(KKK) fusion protein, 42 aa linker (other)
chain: MTTEQRRSLQAFQDYIRKTLDPTYILSYMAPWFREEEVQYIQAEKNNKGPMAAATLFLKFLLELQEEGWFRGFLDALDHAGYSGLYEAIESWDFKKIEKLEEYRLLLKRLQPEFKTRIIPTDIISDLSECLINQECEEILQICSTKGMMAGAEKLVECLLRSDKENWPKTLKLALEKERNKFSELWIVMPFAEDKTYKYICRNFSNFCNVKVVKILPYLPCLTARDQDRLRATCTLSGNRDTLWHLFNTLQRRPGWVEYFIAALRGCKLVDLADEVASVYQSYQP
stoichiometry N (SEC-MALS): 4
